# Results from paper PMC3017119, “Structural Basis for the Recognition of Cellular mRNA Export Factor REF by Herpes Viral Proteins HSV-1 ICP27 and HVS ORF57” (PLoS Pathogens, 2011).
# B1: ICP27^1–138: recombinant fragment aa 1–138 of HSV-1 ICP27 (protein)
# chain: MATDIDMLIDLGLDLSDSDLDEDPPEPAESRRDDLESDSSGECSSSDEDMEDPHGEDGPEPILDAARPAVRPSRPEDPGVPSTQTPRPTERQGPNDPQPAPHSVWSRLGARRPSCSPEQHGGKVARLQPPPTKAQPAR
# modifications: 35S-radiolabelled
# notes: recombinant fragment aa 1–138 of HSV-1 ICP27
# Assays:
# GST-REF2-I = GST-REF2-I pull down of 35S-radiolabelled ICP27 fragments; format: binding, murine; conditions: 35S-radiolabelled protein from rabbit reticulocytes, glutathione beads, RB100 buffer pH 7.5, 10 µg/ml RNAse A; SDS-PAGE, PhosphoImage
# Source text: To confirm the position of REF-binding domains within ICP27 and ORF57 and to minimise the size of constructs for more detailed NMR mapping, a series of fragments derived from HSV-1 ICP27 were screened for binding to GST-REF2-I using pull down assays (Fig. 1). […] The REF-binding fragment of ORF57 aa 8–120 identified previously similarly interacted with the same fragments of REF (Fig. 1D).
# Figure 1 Identification of regions for the interactions between REF and ICP27/ORF57. (A) Subdivision of ICP27, ORF57 and REF2-I in fragments. […] (C) Fusion of the ICP27^103–138 peptide to GST allows a specific pull down of REF, REF^1–155 (NM) and REF^54–155 (Δ53) and a very weak pull down of the REF^1–70 (N); no interaction is detected with the control Ras protein. (D) Same pull down assay as panel C but using GST fusion of ORF57 aa 8–120 in place of ICP27.
# GST or GST protein fusions were first immobilised on 30 µl slurry glutathione-coated beads (GE Healthcare) before 8 µl ^35S-radiolabelled proteins synthesised in rabbit reticulocytes (Promega) were added to the binding reactions in RB100 buffer (25 mM HEPES pH 7.5/100 mM KOAc/10 mM MgCl2/1 mM DTT/0.05% Triton X-100/10% glycerol) in presence of 10 µg/ml RNAse A. Washed and eluted protein complexes were resolved on 15% SDS-PAGE stained with Coomassie blue and analysed by PhosphoImage. […]
# [1] = test system: REF^156–218 (REF2-I C-terminal domain); experiment: NMR 1H-15N correlation spectra of 15N-labelled REF^156–218 with added viral protein constructs; format: binding, murine; conditions: 2-fold excess of viral construct; 15N-HSQC
molecule,measurement,setting,value
B1,Binding to GST-REF2-I in pull down,GST-REF2-I,essentially the same as that of the full-length protein
same,Changes in 1H-15N correlation spectra of 15N-REF^156–218 upon addition,[1],No significant changes
